Experimental data from patent US20260325660 (published 2026).
Residue numbers refer to the chain shown, from its start. One block for each binder: values may come before it.

Tests used:
[1] = target: ROR1 with Ig-like domain removed (human); assay: FACS
human ROR2-ECD = human ROR2-ECD (human, UniProt Q01974); assay: ELISA
[2] = target: ROR1 extracellular segment (with transmembrane) on CHO (human); assay: FACS
[3] = target: ROR1 with Ig-like domain removed (human); assay: FACS; remark: listed apart in the source
[4] = target: ROR1 with Kringle domain removed (human); assay: FACS
human ROR1-ECD = human ROR1-ECD (human); assay: ELISA
[5] = target: T1, human ROR1 on tumor cell surface (human, UniProt Q01973); assay: FACS, MDA-MB-231
[6] = target: T1, human ROR1 on tumor cell surface; assay: FACS, NCI-H226
[7] = target: T2, ROR1 with Frizzled domain removed (human); assay: FACS
T2 chain: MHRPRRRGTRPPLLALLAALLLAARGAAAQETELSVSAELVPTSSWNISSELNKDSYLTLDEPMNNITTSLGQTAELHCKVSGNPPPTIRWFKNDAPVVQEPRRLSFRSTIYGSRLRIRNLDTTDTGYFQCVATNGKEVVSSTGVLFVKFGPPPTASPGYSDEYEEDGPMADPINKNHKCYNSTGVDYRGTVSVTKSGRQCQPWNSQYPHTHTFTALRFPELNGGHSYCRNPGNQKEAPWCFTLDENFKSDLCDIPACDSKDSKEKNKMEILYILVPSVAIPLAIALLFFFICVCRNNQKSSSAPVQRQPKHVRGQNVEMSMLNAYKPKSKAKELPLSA

T1 sequence (Q01973 30-406): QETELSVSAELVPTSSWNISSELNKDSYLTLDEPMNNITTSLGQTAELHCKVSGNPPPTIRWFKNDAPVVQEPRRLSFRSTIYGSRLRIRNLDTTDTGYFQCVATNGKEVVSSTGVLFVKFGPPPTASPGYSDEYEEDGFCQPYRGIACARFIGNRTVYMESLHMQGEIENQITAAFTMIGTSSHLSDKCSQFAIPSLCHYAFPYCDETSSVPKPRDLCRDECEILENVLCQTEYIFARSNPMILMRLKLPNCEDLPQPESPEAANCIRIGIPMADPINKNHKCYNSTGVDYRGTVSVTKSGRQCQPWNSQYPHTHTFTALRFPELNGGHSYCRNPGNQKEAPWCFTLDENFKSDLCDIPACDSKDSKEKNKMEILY
Sequence of human ROR1-ECD (human) (chain, as listed by the source): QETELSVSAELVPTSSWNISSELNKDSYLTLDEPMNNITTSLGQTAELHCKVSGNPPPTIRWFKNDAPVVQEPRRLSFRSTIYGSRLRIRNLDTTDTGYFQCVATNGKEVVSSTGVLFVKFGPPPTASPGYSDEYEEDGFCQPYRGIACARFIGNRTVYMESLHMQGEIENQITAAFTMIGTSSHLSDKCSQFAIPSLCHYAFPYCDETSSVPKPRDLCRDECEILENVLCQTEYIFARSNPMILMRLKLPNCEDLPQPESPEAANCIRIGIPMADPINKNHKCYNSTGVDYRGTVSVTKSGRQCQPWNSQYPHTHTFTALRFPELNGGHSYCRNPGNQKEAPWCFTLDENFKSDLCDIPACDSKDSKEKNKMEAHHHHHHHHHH
Sequence of human ROR2-ECD (Q01974 34-403): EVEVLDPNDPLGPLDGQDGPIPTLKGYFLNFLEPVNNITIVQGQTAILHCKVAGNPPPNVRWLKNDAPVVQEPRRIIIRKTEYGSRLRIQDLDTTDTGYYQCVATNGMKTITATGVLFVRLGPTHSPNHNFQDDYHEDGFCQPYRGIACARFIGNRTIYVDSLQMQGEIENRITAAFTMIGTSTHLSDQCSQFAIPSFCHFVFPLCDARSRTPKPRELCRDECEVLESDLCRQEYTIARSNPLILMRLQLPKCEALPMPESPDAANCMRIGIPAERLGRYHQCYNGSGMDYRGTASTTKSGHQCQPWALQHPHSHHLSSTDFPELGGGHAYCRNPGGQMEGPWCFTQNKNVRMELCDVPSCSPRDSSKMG

B1: mAb005c (antibody, V domains shown)
VH: EVQLVESGGGLVKPGGSLKLSCAASGFTFNSYAMSWVRQTPEKRLEWVATISDGGSYTYYPDNEKGRFTISRDNAKNNLYLQMSHLKSEDTAIYYCVRGGYYYNLYAMDYWGQGTSVTVSS
VL: DIVLTQSPASLAVSLGQRAIISCKASQSVSFPGTSLMHWYQQKPGQQPKLLIYRASNLEAGVPTRFSGSGSRTDFTLNIHPVEEDDTATYYCQQSREYPWTFGGGTQLEIK
binding result [1]: no binding

B2: mAb003c (antibody, V domains shown)
VH: B1 VH with N30S, N63S, E64V, A92D, I93M
VL: B1 VL with P32A, T73A, T87A, R96G, Q107K
binding result [1]: no binding

B3: Hu005-46 (antibody, V domains shown)
VH: B1 VH with K19R, E42G, G54A, N78S, S84N, H85S, K87R, S88A, S116L
VL: DIVLTQSPDSLAVSLGERATINCKASQSVSFPGTSLMHWYQQKPGQQPKLLIYRASNLEAGVPDRFSGSGSRTDFTLTISSLQAEDVAVYYCQQSREYPWTFGGGTKVEIK
binding result (human ROR2-ECD): no binding

B6: mAb002c (antibody)
chain 1: EVQLQQSGPELVKPGASVKMSCKTSGYTFTDYNLHWVKQSHRRSLEWIGYINPNNGGTTYNQKFKGKATLTVDKSSSTAYMELRSLTSEDSAVYYFVRRVRTGTGFDYWGQGTTLTVSS
chain 2: EVLMTQTPLSLPVSLGDQASISCKSSHNILHTNGNTYLEWYLQKPGQSPKLLIYKVSNRFSGVPDRFSGSGSGTDFTLTISRVEAEDLGVYYCFQGSRFPYTFGGGTKLEIK
EC50 [2]: 0.6 nM | EC50 [3]: 0.35 nM | EC50 [4]: 0.66 nM | EC50 (human ROR1-ECD): 0.013 nM | EC50 [5]: 0.2 nM | EC50 [6]: 0.14 nM | EC50 [7]: 0.86 nM

B7: mAb002 (mouse) (antibody)
chain 1: B6 chain 1
chain 2: B6 chain 2
EC50 (human ROR1-ECD): 0.028 nM | EC50 [5]: 0.11 nM

Other lines, results leading:

binding result (human ROR2-ECD): no binding
B4: Hu001-02 (antibody, V domains shown)
VH: QVQLVQSGAEVKKPGASVKVSCKASGYTFTDYNLHWVRQAPGQGLEWMGYINPNHDATSYNQKFQGRVTMTRDTSTSTVYMELSSLRSEDTAVYYCARRVRTGTGLDDWGQGTTVTVSS
VL: DVVMTQSPLSLPVTLGQPASISCRSSHNIVHTNANTYLEWYQQRPGQSPRLLIYKVSNRFSGVPDRFSGSGSGTDFTLKISRVEAEDVGVYYCFQGSRFPYTFGGGTKVEIK

binding result [1]: no binding
B5: UC-961 (antibody, V domains shown)
VH: QVQLQESGPGLVKPSQTLSLTCTVSGYAFTAYNIHWVRQAPGQGLEWMGSFDPYDGGSSYNQKFKDRLTISKDTSKNQVVLTMTNMDPVDTATYYCARGWYYFDYWGHGTLVTVSS
VL: DIVMTQTPLSLPVTPGEPASISCRASKSISKYLAWYQQKPGQAPRLLIYSGSTLQSGIPPRFSGSGYGTDFTLTINNIESEDAAYYFCQQHDESPYTFGEGTKVEIK
